Here are results for 18 molecules from patent publication US20090060919A1 (AstraZeneca / MedImmune, published 2009).

In assay [1] the target is T1, human IgEλ (U266 derived) (human, UniProt P01854-1 1-428).
T1 construct: Whole IgE purified from U266 cells (Ikeyama et al. 1986); labelled with europium cryptate or biotin in some assays; also called human IgE (U266-derived); human IgE lambda
Briefly: HTRF competition: scFv against Eu-cryptate human IgE binding to human FcεRI-Fc; geomean (95% CI).

The target in assay [2] is T1, human IgEλ (U266 derived). Briefly: cell-based or functional assay.
The target in assay [3] is recombinant chimaeric cynomolgus IgE (D12 variable regions, cynomolgus IgE constant region) (cynomolgus monkey). Briefly: cell-based or functional assay.
Sequence of recombinant chimaeric cynomolgus IgE (D12 variable regions, cynomolgus IgE constant region) (cynomolgus monkey) (heavy, as listed by the source limits assumed, chain 1 of 2): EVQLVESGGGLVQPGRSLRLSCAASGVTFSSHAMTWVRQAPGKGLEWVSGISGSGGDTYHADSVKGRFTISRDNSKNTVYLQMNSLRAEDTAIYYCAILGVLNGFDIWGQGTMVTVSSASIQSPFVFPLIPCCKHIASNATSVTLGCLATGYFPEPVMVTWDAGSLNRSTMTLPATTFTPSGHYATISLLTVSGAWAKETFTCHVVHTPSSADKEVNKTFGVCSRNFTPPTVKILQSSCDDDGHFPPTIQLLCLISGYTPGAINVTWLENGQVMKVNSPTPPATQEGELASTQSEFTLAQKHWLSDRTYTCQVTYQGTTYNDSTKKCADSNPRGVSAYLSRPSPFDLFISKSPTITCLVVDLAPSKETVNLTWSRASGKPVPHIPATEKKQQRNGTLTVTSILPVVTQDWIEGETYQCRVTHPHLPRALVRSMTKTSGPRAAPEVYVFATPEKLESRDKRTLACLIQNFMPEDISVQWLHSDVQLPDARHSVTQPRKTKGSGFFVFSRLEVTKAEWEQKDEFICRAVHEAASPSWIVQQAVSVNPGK
Sequence of recombinant chimaeric cynomolgus IgE (D12 variable regions, cynomolgus IgE constant region) (cynomolgus monkey) (light, as listed by the source limits assumed, chain 2 of 2): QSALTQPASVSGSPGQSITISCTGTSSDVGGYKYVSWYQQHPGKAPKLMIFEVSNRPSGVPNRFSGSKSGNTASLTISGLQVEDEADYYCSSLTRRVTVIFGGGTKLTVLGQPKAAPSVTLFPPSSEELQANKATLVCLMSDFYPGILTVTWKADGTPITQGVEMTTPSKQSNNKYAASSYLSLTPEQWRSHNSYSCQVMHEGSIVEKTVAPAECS
The target of assay [4] is T1, human IgEλ (U266 derived). As to the kind of experiment: SPR (BIAcore 2000): IgG captured on protein G', IgE as analyte, bivalent analyte model; geomean.
Method: In brief, Protein G′ (Sigma Aldrich, P4689) was covalently coupled to the surface of a CM5 sensor chip using standard amine coupling reagents according to manufacturer's instructions (BIAcore). […] The resulting sensorgrams were evaluated using BIA evaluation 3.1 software and fitted to a bivalent analyte model, to provide relative binding data.
For assay [5], the target named is T1, human IgEλ (U266 derived). Briefly: HTRF competition: scFv against Eu-cryptate human IgE binding to human FcεRI-Fc; geomean.

T1 sequence (P01854 other isoform, or with tags, fused parts or gaps): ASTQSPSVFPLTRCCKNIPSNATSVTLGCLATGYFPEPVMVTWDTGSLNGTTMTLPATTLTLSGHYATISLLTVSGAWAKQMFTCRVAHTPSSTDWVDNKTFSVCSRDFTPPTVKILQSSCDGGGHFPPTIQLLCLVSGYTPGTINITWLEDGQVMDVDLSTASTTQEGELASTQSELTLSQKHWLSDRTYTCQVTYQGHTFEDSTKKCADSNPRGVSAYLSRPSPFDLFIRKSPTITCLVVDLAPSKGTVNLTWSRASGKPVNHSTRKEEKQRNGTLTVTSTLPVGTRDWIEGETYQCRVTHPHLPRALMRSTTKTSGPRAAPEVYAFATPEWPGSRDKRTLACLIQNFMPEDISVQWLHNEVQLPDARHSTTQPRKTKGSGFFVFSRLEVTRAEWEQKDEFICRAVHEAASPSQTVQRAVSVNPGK

B1: Antibody 1 scFv (scFv, V domains shown)
VH: QVQLVQSGAEVKKPGATVKLSCKVYGYIFTDYNIYWVRQAPGKGLEWMGLIDPDNGETFYAEKFQGRATMTADTSSDRAYMELTSLTFEDTATYYCATVLHRRLKGGYDYWGRGTLVTVSS
VL: QSVLTQPPSVSGAPGQRVTISCTGSSSNIGAGYDVHWYQQLPGTAPKLLIYDNFNRPSGVPDRFSGSKSGTSASLAIIGLQTEDEADYYCQSYDSSLSGSLFGTGTKLTVL
notes: Purified scFv, non-germlined; also called parent; not shown: scFv linker and any tags; the libraries are only cited to Vaughan et al. 1996
Regarding B1, the concentration for half-maximal inhibition (IC50) in assay [1] came out at 475 nM.

B2: Antibody 21 IgG (antibody, V domains shown)
VH: QVQLVQSGAEVKKPGATVKLSCKVYGYIFTDYNIYWVRQAPGKGLEWMGLIDPDNGETFYAEKFQGRATMTADTSSDRAYMELTSLTFEDTATYYCATVTLKSAKGGYDYWGRGTLVTVSS
VL: QSVLTQPPSVSGAPGQRVTISCTGSSSNIGAGYDVHWYQQLPGTAPKLLIYDNFNRPSGVPDRFSGSKSGTSASLAIIGLQTEDEADYYCQSYDSSSQLSPFGTGTKLTVL
Turning to B2, the “RBL-ER51 calcium signalling IC50 (Geomean), Human IgE” value in assay [2] came out at 0.306 nM. Besides, the “RBL-ER51 calcium signalling IC50 (Geomean), Cynomolgus IgE” value in assay [3] stood at 3.58 nM.

B3: Antibody 22 IgG (antibody, V domains shown)
VH: QVQLVQSGAEVKKPGATVKLSCKVYGYIFTDYNIYWVRQAPGKGLEWMGLIDPDNGETFYAEKFQGRATMTADTSSDRAYMELTSLTFEDTATYYCATVTLKSAKGGYDYWGRGTLVTVSS
VL: QSVLTQPPSVSGAPGQRVTISCTGSSSNIGAGYDVHWYQQLPGTAPKLLIYDNFNRPSGVPDRFSGSKSGTSASLAIIGLQTEDEADYYCQSYDSSGGYAPFGTGTKLTVL
As for B3, in assay [2], the “RBL-ER51 calcium signalling IC50 (Geomean), Human IgE” value stood at 0.262 nM. The “RBL-ER51 calcium signalling IC50 (Geomean), Cynomolgus IgE” value in assay [3] amounted to 2.66 nM.

B4: Antibody 26 IgG (antibody, V domains shown)
VH: QVQLVQSGAEVKKPGATVKLSCKVYGYIFTDYNIYWVRQAPGKGLEWMGLIDPDNGETFYAEKFQGRATMTADTSSDRAYMELTSLTFEDTATYYCATVSLKEAKGGYDYWGRGTLVTVSS
VL: QSVLTQPPSVSGAPGQRVTISCTGSSSNIGAGYDVHWYQQLPGTAPKLLIYDNFNRPSGVPDRFSGSKSGTSASLAIIGLQTEDEADYYCQSYDSASRHAPFGTGTKLTVL
For the molecule B4, the “RBL-ER51 calcium signalling IC50 (Geomean), Human IgE” value in assay [2] amounted to 0.398 nM. For the same molecule, the “RBL-ER51 calcium signalling IC50 (Geomean), Cynomolgus IgE” value in assay [3] was 5.1 nM.

B5: Antibody 18 IgG (antibody, V domains shown)
VH: QVQLVQSGAEVKKPGATVKLSCKVYGYIFTDYNIYWVRQAPGKGLEWMGLIDPDNGETFYAEKFQGRATMTADTSSDRAYMELTSLTFEDTATYYCATVLLRSAKGGYDYWGRGTLVTVSS
VL: QSVLTQPPSVSGAPGQRVTISCTGSSSNIGAGYDVHWYQQLPGTAPKLLIYDNFNRPSGVPDRFSGSKSGTSASLAIIGLQTEDEADYYCQSYDSHLQLSPFGTGTKLTVL
notes: Whole human IgG (section 1.4: IgG1)
On to B5, for which the “RBL-ER51 calcium signalling IC50 (Geomean), Human IgE” value in assay [2] was 0.532 nM. Further, the Kd in assay [4] was 8 nM.

B6: Antibody 6 scFv (scFv, V domains shown)
VH: QVQLVQSGAEVKKPGATVKLSCKVYGYIFTDYNIYWVRQAPGKGLEWMGLIDPDNGETFYAEKFQGRATMTADTSSDRAYMELTSLTFEDTATYYCATVMGKWIKGGYDYWGRGTLVTVSS
VL: QSVLTQPPSVSGAPGQRVTISCTGSSSNIGAGYDVHWYQQLPGTAPKLLIYDNFNRPSGVPDRFSGSKSGTSASLAIIGLQTEDEADYYCQSYDSTMRHGPFGTGTKLTVL
notes: Purified scFv, non-germlined; not shown: scFv linker and any tags; the libraries are only cited to Vaughan et al. 1996
In assay [5], B6 yielded a 50% inhibitory concentration (IC50) of 3 nM.

B7: Antibody 16 IgG (antibody, V domains shown)
VH: QVQLVQSGAEVKKPGATVKLSCKVYGYIFTDYNIYWVRQAPGKGLEWMGLIDPDNGETFYAEKFQGRATMTADTSSDRAYMELTSLTFEDTATYYCATVSLKSAKGGYDYWGRGTLVTVSS
VL: QSVLTQPPSVSGAPGQRVTISCTGSSSNIGAGYDVHWYQQLPGTAPKLLIYDNFNRPSGVPDRFSGSKSGTSASLAIIGLQTEDEADYYCQSYDSRHHHAPFGTGTKLTVL
notes: as for B5
With B7, the “RBL-ER51 calcium signalling IC50 (Geomean), Human IgE” value in assay [2] turned out to be 0.292 nM. The molecule also yielded a Kd in assay [4] of 4.6 nM.

B8: Antibody 16 scFv (scFv, V domains shown)
VH: QVQLVQSGAEVKKPGATVKLSCKVYGYIFTDYNIYWVRQAPGKGLEWMGLIDPDNGETFYAEKFQGRATMTADTSSDRAYMELTSLTFEDTATYYCATVSLKSAKGGYDYWGRGTLVTVSS
VL: QSVLTQPPSVSGAPGQRVTISCTGSSSNIGAGYDVHWYQQLPGTAPKLLIYDNFNRPSGVPDRFSGSKSGTSASLAIIGLQTEDEADYYCQSYDSRHHHAPFGTGTKLTVL
notes: Purified scFv, non-germlined
B8: in assay [1], the IC50 came to 5 nM.

B9: Antibody 28 IgG (antibody, V domains shown)
VH: QVQLVQSGAEVKKPGATVKLSCKVYGYIFTDYNIYWVRQAPGKGLEWMGLIDPDNGETFYAEKFQGRATMTADTSSDRAYMELTSLTFEDTATYYCATVMGKWIKGGYDYWGRGTLVTVSS
VL: QSVLTQPPSVSGAPGQRVTISCTGSSSNIGAGYDVHWYQQLPGTAPKLLIYDNFNRPSGVPDRFSGSKSGTSASLAIIGLQTEDEADYYCQSYDSSSLHSPFGTGTKLTVL
notes: as for B5
For B9, the “RBL-ER51 calcium signalling IC50 (Geomean), Human IgE” value in assay [2] turned out to be 0.099 nM. In assay [4], this molecule registered a Kd of 3.2 nM.

B10: Antibody 20 IgG (antibody, V domains shown)
VH: QVQLVQSGAEVKKPGATVKLSCKVYGYIFTDYNIYWVRQAPGKGLEWMGLIDPDNGETFYAEKFQGRATMTADTSSDRAYMELTSLTFEDTATYYCATVMGKWIKGGYDYWGRGTLVTVSS
VL: QSVLTQPPSVSGAPGQRVTISCTGSSSNIGAGYDVHWYQQLPGTAPKLLIYDNFNRPSGVPDRFSGSKSGTSASLAIIGLQTEDEADYYCQSYDSSTSSSPFGTGTKLTVL
notes: as for B5
As to B10, in assay [2], the “RBL-ER51 calcium signalling IC50 (Geomean), Human IgE” value is 0.191 nM. In addition, the Kd in assay [4] was 3.3 nM.

B11: Antibody 12 IgG (antibody, V domains shown)
VH: QVQLVQSGAEVKKPGATVKLSCKVYGYIFTDYNIYWVRQAPGKGLEWMGLIDPDNGETFYAEKFQGRATMTADTSSDRAYMELTSLTFEDTATYYCATVMGKWIKGGYDYWGRGTLVTVSS
VL: QSVLTQPPSVSGAPGQRVTISCTGSSSNIGAGYDVHWYQQLPGTAPKLLIYDNFNRPSGVPDRFSGSKSGTSASLAIIGLQTEDEADYYCQSYDSSIDHSPFGTGTKLTVL
notes: as for B5
For B11, the “RBL-ER51 calcium signalling IC50 (Geomean), Human IgE” value in assay [2] stood at 0.134 nM. In assay [4], this molecule gave a Kd of 2.3 nM.

B12: Antibody 23 IgG (antibody, V domains shown)
VH: QVQLVQSGAEVKKPGATVKLSCKVYGYIFTDYNIYWVRQAPGKGLEWMGLIDPDNGETFYAEKFQGRATMTADTSSDRAYMELTSLTFEDTATYYCATVMGKWIKGGYDYWGRGTLVTVSS
VL: QSVLTQPPSVSGAPGQRVTISCTGSSSNIGAGYDVHWYQQLPGTAPKLLIYDNFNRPSGVPDRFSGSKSGTSASLAIIGLQTEDEADYYCQSYDSHHLYSSFGTGTKLTVL
notes: as for B5
In the case of B12, the “RBL-ER51 calcium signalling IC50 (Geomean), Human IgE” value in assay [2] was 0.109 nM. Further, in assay [4], the Kd was determined as 2.7 nM.

B13: Antibody 13 IgG (antibody, V domains shown)
VH: QVQLVQSGAEVKKPGATVKLSCKVYGYIFTDYNIYWVRQAPGKGLEWMGLIDPDNGETFYAEKFQGRATMTADTSSDRAYMELTSLTFEDTATYYCATVMGKWIKGGYDYWGRGTLVTVSS
VL: QSVLTQPPSVSGAPGQRVTISCTGSSSNIGAGYDVHWYQQLPGTAPKLLIYDNFNRPSGVPDRFSGSKSGTSASLAIIGLQTEDEADYYCQSYDSNILYSPFGTGTKLTVL
notes: as for B5
Consider B13, for which the “RBL-ER51 calcium signalling IC50 (Geomean), Human IgE” value in assay [2] is 0.088 nM. For the same molecule, the Kd in assay [4] was 2.3 nM.

B14: Antibody 11 scFv (scFv, V domains shown)
VH: QVQLVQSGAEVKKPGATVKLSCKVYGYIFTDYNIYWVRQAPGKGLEWMGLIDPDNGETFYAEKFQGRATMTADTSSDRAYMELTSLTFEDTATYYCATVMGKWIKGGYDYWGRGTLVTVSS
VL: QSVLTQPPSVSGAPGQRVTISCTGSSSNIGAGYDVHWYQQLPGTAPKLLIYDNFNRPSGVPDRFSGSKSGTSASLAIIGLQTEDEADYYCQSYDSPTLTSPFGTGTKLTVL
notes: Purified scFv, non-germlined
Turning to B14, the half-inhibitory concentration (IC50) in assay [1] came to 2 nM.

B15: Antibody 19 IgG (antibody, V domains shown)
VH: QVQLVQSGAEVKKPGATVKLSCKVYGYIFTDYNIYWVRQAPGKGLEWMGLIDPDNGETFYAEKFQGRATMTADTSSDRAYMELTSLTFEDTATYYCATVMGKWIKGGYDYWGRGTLVTVSS
VL: QSVLTQPPSVSGAPGQRVTISCTGSSSNIGAGYDVHWYQQLPGTAPKLLIYDNFNRPSGVPDRFSGSKSGTSASLAIIGLQTEDEADYYCQSYDSTLSHSPFGTGTKLTVL
notes: as for B5
Take B15: the “RBL-ER51 calcium signalling IC50 (Geomean), Human IgE” value in assay [2] was 0.095 nM. In assay [4], this molecule showed a Kd of 2.5 nM.

B16: Antibody 8 scFv (scFv, V domains shown)
VH: QVQLVQSGAEVKKPGATVKLSCKVYGYIFTDYNIYWVRQAPGKGLEWMGLIDPDNGETFYAEKFQGRATMTADTSSDRAYMELTSLTFEDTATYYCATVLGRWIKGGYDYWGRGTLVTVSS
VL: QSVLTQPPSVSGAPGQRVTISCTGSSSNIGAGYDVHWYQQLPGTAPKLLIYDNFNRPSGVPDRFSGSKSGTSASLAIIGLQTEDEADYYCQSYDSPTHTSPFGTGTKLTVL
notes: Purified scFv, non-germlined
In the case of B16, the concentration for half-maximal inhibition (IC50) in assay [1] amounted to 5 nM.

B17: Antibody 5 scFv (scFv, V domains shown)
VH: QVQLVQSGAEVKKPGATVKLSCKVYGYIFTDYNIYWVRQAPGKGLEWMGLIDPDNGETFYAEKFQGRATMTADTSSDRAYMELTSLTFEDTATYYCATVMGKWIKGGYDYWGRGTLVTVSS
VL: QSVLTQPPSVSGAPGQRVTISCTGSSSNIGAGYDVHWYQQLPGTAPKLLIYDNFNRPSGVPDRFSGSKSGTSASLAIIGLQTEDEADYYCQSYDSTKHTSPFGTGTKLTVL
notes: as for B6
In turn, B17 came in with a 50% inhibitory concentration (IC50) in assay [1] of 3 nM.

B18: Antibody 4 scFv (scFv, V domains shown)
VH: QVQLVQSGAEVKKPGATVKLSCKVYGYIFTDYNIYWVRQAPGKGLEWMGLIDPDNGETFYAEKFQGRATMTADTSSDRAYMELTSLTFEDTATYYCATVMGKWIKGGYDYWGRGTLVTVSS
VL: QSVLTQPPSVSGAPGQRVTISCTGSSSNIGAGYDVHWYQQLPGTAPKLLIYDNFNRPSGVPDRFSGSKSGTSASLAIIGLQTEDEADYYCQSYDSRGGHSPFGTGTKLTVL
notes: as for B6
Consider B18, for which, in assay [1], the IC50 was 2 nM.
